Experimental data as given in US20250066490A1, “ANTI-CD70 ANTIBODIES, CONJUGATES THEREOF AND METHODS OF USING THE SAME” (ProfoundBio US Co., priority 2021, published 2025).

B1: 1H8: anti-CD70 antibody clone, VH SEQ 5 and VL SEQ 6; scFv and full human IgG1/kappa (antibody, V domains shown)
VH: QVQLQESGPGLVKPSETLSLTCTVSGGSVSSDYYYWSWIRQPPGKGLEWLGYIYYSGSTNYNPSLKSRVTISVDTSKNQFSLKLRSVTTADTAVYYCARGDGDFMGVCFDYWGQGTLVTVSS
VL: EIVLTQSPATLSLSPGERATLSCRASQSVSSYLAWYQQKPGQAPRLLIFDASNRATGIPARFSGSGSGTDFTLTISSLEPEDFAVYYCQQRSNWPLTFGGGTKVEIK
B2: 2D2: anti-CD70 antibody clone, VH SEQ 9 and VL SEQ 10; scFv and full human IgG1/kappa (antibody, V domains shown)
VH: QVQLQESGPGLVKPSETLSLTCTVSGGSVSSDYYYWSWIRQPPGKGLEWLGYIYYSGSTNYNPSLKSRVTISVDTSKNQFSLKLRSVTTADTAVYYCARGDGDYGGNCFDYWGQGTLVTVSS
VL: EIVLTQSPATLSLSPGERATLSCRASQSVSSYLAWYQQKPGQAPRLLIFDASNRATGIPARFSGSGSGTDFTLTISSLEPEDFAVYYCQQRLKFPLTFGGGTKVEIK
modifications: left off: another chain or arm of the molecule; large carriers; small tags and cut ends
notes: scFv and full human IgG1/kappa

Tests used:
[1] = Hydrophobic interaction chromatography (HIC); type: physicochemical; settings: full IgG; for Retention time: hydrophobicity by HIC
Experimental: Antibodies were purified from cleared cell culture supernatants using Protein A chromatography (Protein A resin slurry, 4.5 mL, Bogen, Cat #18-0010-02). Briefly, supernatants were prepared for affinity chromatography and loaded onto the columns and allowed to flow completely through the resin. The columns were washed with binding buffer containing 0.15M NaCl and 0.2M PB, PH7.0. Antibody was eluted with elution buffer containing 0.15M NaCl, 0.1M Glycine and 0.2M PB, PH 3.0. Fractions were collected and neutralized by the addition of 1/10 volume of 1M Tris, PH9.0. The fractions were dialyzed for 2 hours against 1×PBS. Purified antibody was quantified by absorbance at A280. Samples from each step of the protein A chromatography were applied onto 12% SDS-PAGE gels for reduced and non-reduced electrophoresis. The hydrophobicity was assessed with hydrophobic interaction chromatography (HIC) on a TSK gel Butyl-NPR, 4.6×100 mm with Butyl-NPR (Tosoh corporation) using a Waters HPLC 2695 system.

[2] = tested on: 786-O, Caki-1, U251 and DBTRG-05MG cells; assay: Antibody binding by flow cytometry, statements across all four tumor cell lines; design: species or system human; settings: four cell lines
Experimental: The lead antibodies were tested for binding to renal carcinoma cells and glioblastoma cells expressing CD70 on the cell surface by flow cytometry. Cell lines 786-O (ATCC® CRL-1932™, provided by COBIOER), Caki-1 (ATCC® HTB-46™, provided by COBIOER), U251 and DBTRG-05MG (ATCC® CRL-2020™, provided by COBIOER) were each tested for antibody binding. 786-O cells were cultured with RPMI 1640 medium (Gibco, Cat #11875093) containing of 10% FBS (Gibco, Cat #10099141) while Caki-1 cells were cultured with McCoy's 5a Modified medium (Gibco, Cat #16600082) containing 10% FBS. U251 cells were cultured with MEM medium containing of 10% FBS and 1% NEAA+1 mM sodium pyruvate. DBTRG-05MG cells were cultured with DMEM medium (Gibco, Cat #C11995500BT) containing of 10% FBS. Each of the lead antibodies and the controls were incubated for 30 mins with the different cell lines (3×10^5 cells per well) in 0.2 ml FACS buffer (1×PBS with 0.1% BSA) at 4° C. Then, the cells were pelleted, washed, and incubated at 4° C. for 30 mins with 100 μl of 1:200 diluted PE-conjugated anti human Fc (Abcam, Ab98596) in FACS buffer. The cells were pelleted again, washed with PBS, resuspended in FACS buffer and analyzed by flow cytometer (Beckman, CytoFLEX).

CD70 ECD = target: T1, CD70 ECD (Homo sapiens, UniProt P32970); assay: Biacore affinity measurement on immobilized CD70 ECD; type: binding; settings: 25° C., CD70 immobilized
T1 sequence (P32970 39-193 limits assumed): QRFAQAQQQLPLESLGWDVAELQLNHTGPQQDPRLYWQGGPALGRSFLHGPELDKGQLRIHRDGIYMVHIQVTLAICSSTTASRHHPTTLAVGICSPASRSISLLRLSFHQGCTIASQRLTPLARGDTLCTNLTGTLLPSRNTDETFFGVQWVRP
Experimental: The immobilization of antigen CD70 ECD was performed at 25° C. with HBS-EP as the running buffer. Sensor chip surface of flow cells 1, 4 were activated by freshly mixed 50 mmol/L N-Hydroxy succinimide (NHS) and 200 mmol/L 1-ethyl-3-(3-dimethylaminopropyl) carbodiimide hydrochloride (EDC) for 420s (10 μL/min). Afterwards, CD70 antigen diluted in 10 mmol/L NaAC (pH 4.5) was injected into flow cell 4 to achieve conjugation of the appropriate Response Unit, while flow cell 1 was set as a blank. After the amine coupling reaction, the remaining active coupling sites on chip surface were blocked by 420s injection of 1 mol/L ethanolamine hydrochloride.
The assay was performed at 25° C. and the running buffer was HBS-EP. Diluted antibodies were injected over the surface of flow cells 1 and 4 during the association phase, followed by injecting running buffer as the dissociation phase. All the data were processed using Biacore T200 Evaluation software version 3.1. Flow cell 1 and a blank injection of buffer in each cycle were used as a double reference for Response Units subtraction. Kinetic data of the interaction between the antibodies and CD70 antigen were obtained through affinity measurement.

786-O cells = assay: Internalization by FACS immune-fluorescence staining, 786-O; type: cell-based, human; settings: based on the cell binding affinity
Experimental: (§1) Briefly, 2×10^5 cells were harvested from a tissue culture flask by treatment with 0.25% Trypsin/EDTA and then incubated with 10 μg/ml of the lead antibodies or control antibodies in FACS buffer (1×PBS with 0.1% BSA) for 30 mins at 4° C. The cells were washed at 4° C. to remove unbound antibodies and kept on ice or shifted to 37° C. At the set time points (0 h, 4 h, 24 h), cells were incubated with PE-conjugated anti human Fc (Abcam, Ab98596) for 30 mins at 4° C. and then analyzed by flow cytometry. The internalization ratio was calculated by subtracting the 37° C. MFI from the 4° C. MFI, and then compared with 4° C. MFI.
(§2) Four cell lines ([…]), Caki-1, Raji, MCF-7) were utilized in the internalization assay. Target (CD70) copy numbers were determined via the QIFIKIT (DAKO, K0078). Briefly, cells were labeled with a primary mouse monoclonal antibody against CD70. Cells, Set-up beads, Calibration beads (from the kit) were then labeled in parallel with a fluorescein-conjugated anti-mouse secondary antibody. The fluorescence is correlated with the number of bound primary antibody molecules on the cells and on the beads. Samples were subsequently analyzed on the flow cytometer and copy number determined based on the calibration curve (Table 11). For internalization assay, 3×10^5 cells were incubated at 4° C. for 30 min with 10 µg/ml 2E7 in FACS buffer (1×PBS containing 0.1% BSA). Cells were washed at 4° C. to remove unbound material and kept on ice or shifted to 37° C. for different lengths of time. At progressive timepoints ([…], 0.5, 1, 2, 3, 4 hr) cells were stained with PE-conjugated anti-human Fc for 30 min at 4° C. and analyzed by flow cytometry. Internalization rate were calculated by subtracting the mean fluorescence intensity (MFI) of cell surface-bound antibody at 37° C. at each time point from the MFI of cell surface-bound antibody at 4° C. at time 0, then divided by the MFI of the cell surface-bound antibody at 4° C. at time 0.

Caki-1 cells = assay: Internalization by FACS immune-fluorescence staining, Caki-1; type: cell-based, human; settings: Caki-1, based on the cell binding affinity
Experimental: as §1, §2

[3] = tested on: cynomolgus CD70 recombinant protein; assay: Antibody binding ELISA, cynomolgus CD70; settings: full IgG, FIG. 3
Experimental: The binding specificity of the CD70 antibodies was tested by ELISA according to a standard protocol. Briefly, 96-well micro-plates were coated with 2 μg/ml of human or cynomolgus CD70 recombinant protein in PBS at 100 μl per well and incubated overnight at 4° C. The plates were washed twice with TBS+0.5% Tween20. 200 μL of blocking buffer (2% BSA in PBS) was added to each well, and the plates were incubated at 37° C. for 2 hours. The plates were washed using the wash buffer mentioned above. Serially diluted antibodies were added to the ELISA plates using 100 μl per well, and the plates were incubated for 1 hour at room temperature. Then plates were washed 3 times. HRP conjugated anti-human Fc antibody solution (Sigma, I18885-2ML, diluted with blocking buffer) was added to the plates using 100 μl per well. The plates were incubated at room temperature for 1 hour and then washed 3 times. Then the TMB solution was added to plates using 100 μl per well and the plates were placed at RT for 5-15 mins. Then the stop solution (2M H2SO4) was added using 50 μl per well. The absorbance was measured at A450 and A630.

| Molecule | hydrophobicity compared with the parent antibody 69A7 ([1]; HIC) | Retention time [1] [min] | binding ability to the cell lines compared with antibody 69A7 [2] | Rmax (RU) (CD70 ECD) | ka (CD70 ECD) [M⁻¹ s⁻¹] | kd (CD70 ECD) [s⁻¹] | absolute amount of antibody internalized into cell vs parent antibody 69A7 (786-O cells) | absolute amount of antibody internalized into cell vs parent antibody 69A7 (Caki-1 cells) | cross binding activity to the cyno-antigen [3] |
| --- | --- | --- | --- | --- | --- | --- | --- | --- | --- |
| B1 | slightly more hydrophobic than the parent antibody 69A7 | 10.24 | slightly higher binding ability to the cell lines than that of antibody 69A7 | 38.81 | 25600 | 0.00112 | higher absolute amount of antibody internalized into cell than the parent antibody 69A7 | higher absolute amount of antibody internalized into cell than the parent antibody 69A7 | better cross binding activity to the cyno-antigen than antibody 69A7 |
| B2 |  | 8.81 | slightly higher binding ability to the cell lines than that of antibody 69A7 | 38.83 | 11700 | 0.00105 | higher absolute amount of antibody internalized into cell than the parent antibody 69A7 | higher absolute amount of antibody internalized into cell than the parent antibody 69A7 | better cross binding activity to the cyno-antigen than antibody 69A7 |
